Results reported in doi:10.1101/2023.09.30.560296 (bioRxiv, 2023).
Values joined by “and” are separate entries in the source; they are usually repeats but may differ in a detail not shown here. Identical values can stand only once. Blank lines part the entries; values can stand above or below the binder they belong to. Square brackets hold non-standard residues; d marks the D form. Ends that are not written are not given here. * marks the point of attachment. FITC = O=C1OC2(c3ccc(O)cc3Oc3cc(O)ccc32)c2ccc(NC(=S)*)cc21; pS = N[C@@H](COP(=O)(O)O)C(=O)O; Ahx = NCCCCCC(=O)O

Columns and labels:
GST-fused LC3B [1] = target: T1, GST-fused LC3B (UniProt Q9GZQ8 1-120); assay: Microfluidic Diffusional Sizing
GST-fused LC3B [2] = target: T1, GST-fused LC3B; assay: SPR

Kd (GST-fused LC3B [1]): 15.9 µM
B2: FITC-Ahx OPTN LIR peptide 169-185 (F178W) (peptide)
peptide: {FITC-Ahx}-NSSGSSEDSWVEIRMAE

Kd (GST-fused LC3B [2]): 36.7 µM
Kd (GST-fused LC3B [1]): 44.8 µM
B4: FITC-Ahx OPTN LIR peptide 169-185 (S177D) (peptide)
peptide: {FITC-Ahx}-NSSGSSEDDFVEIRMAE

Kd (GST-fused LC3B [2]): 36.7 µM
B6: FITC-Ahx OPTN LIR peptide 169-185 (pS177 M183A) (peptide)
peptide: {FITC-Ahx}-NSSGSSED[pS]FVEIRAAE

Kd (GST-fused LC3B [2]): > 100 µM
fold increase of Kd against pS177 (GST-fused LC3B [1]): 5 fold
B7: FITC-Ahx OPTN LIR peptide 169-185 (pS177 F178A) (peptide)
peptide: {FITC-Ahx}-NSSGSSED[pS]AVEIRMAE

The next lines start with the binder.

B1: FITC-Ahx OPTN LIR peptide 169-185 (pS177) (peptide)
peptide: {FITC-Ahx}-NSSGSSED[pS]FVEIRMAE
Kd (GST-fused LC3B [1]): 14.3 µM and 13.7 µM

B3: FITC-Ahx OPTN LIR peptide 169-185 (pS177 F178W) (peptide)
peptide: {FITC-Ahx}-NSSGSSED[pS]WVEIRMAE
fold increase of binding affinity against pS177 (GST-fused LC3B [1]): 7 fold

B5: FITC-Ahx OPTN LIR peptide 169-185 (S177E) (peptide)
peptide: {FITC-Ahx}-NSSGSSEDEFVEIRMAE
Kd (GST-fused LC3B [1]): 42.8 µM
